Experimental findings from paper PMC9678781 (The Journal of Biological Chemistry, 2022) are described below.

For assay [1], the target named is SARS-CoV-2 Spike S2 subdomain (aa 686-1211), 8xHis-tagged (SARS-CoV-2 Wuhan-Hu-1, UniProt P0DTC2). Description: flow cytometry on cells. Conditions: one partner purified. On the technique in general: Flow cytometry measures light scatter and fluorescence of single cells or particles in a stream.
The target of assay [2] is SARS-CoV-2 Spike S1 subdomain (aa 2-682), 8xHis-tagged (SARS-CoV-2 Wuhan-Hu-1, UniProt P0DTC2). The experiment in a line: flow cytometry on cells. Particulars: one partner purified.

B1: B9-scFv displayed on the 293T cell surface (pBovShow) (scFv)
VH: QVQLRESGPSLVKPSQTLSLTCTASGFSLSDKAVGWVRQAPGKALEWLGGIDTGGSTGYNPGLKSRLSITKDNSKSQISLSVSSVTTEDSATYYCTTVHQRDSCPYDSSHSQYCSYGWSCGVYNCRPAVWYRYGSCGTCDNLFSYVDAWGQGLLVTVSS
VL: QAVLNQPSSVSGSLGQRVSITCSGSSSNVGNGYVSWYQLIPGSAPRTLIYGDTSRASGVPDRFSGSRSGNTATLTISSLQAEDEADYFCASAEDSSSNAVFGSRTTLTVL
For B1, the binding result was “no binding (tested: 2 μM)” in assay [1] and “binds” in assay [2].
